Test results taken from PMC6639074 (eLife, 2019).

Biological target: T1, GFP-FLAG-STAMBPL1 (human, UniProt Q96FJ0 1-436)
T1 construct: STAMBPL1, human, amplified from FLAG-HA-STAMBPL1; GAGAGA linker between GFP and FLAG; also called GFP-STAMBPL1; recombinant STAMBPL1; source: HEK293T, transfected, purified (FLAG M2 resin, 3X FLAG peptide); MEFs, transfected (relocation imaging); not shown: GFP, N-terminal, kept; FLAG, N-terminal, kept
T1 sequence (looked up): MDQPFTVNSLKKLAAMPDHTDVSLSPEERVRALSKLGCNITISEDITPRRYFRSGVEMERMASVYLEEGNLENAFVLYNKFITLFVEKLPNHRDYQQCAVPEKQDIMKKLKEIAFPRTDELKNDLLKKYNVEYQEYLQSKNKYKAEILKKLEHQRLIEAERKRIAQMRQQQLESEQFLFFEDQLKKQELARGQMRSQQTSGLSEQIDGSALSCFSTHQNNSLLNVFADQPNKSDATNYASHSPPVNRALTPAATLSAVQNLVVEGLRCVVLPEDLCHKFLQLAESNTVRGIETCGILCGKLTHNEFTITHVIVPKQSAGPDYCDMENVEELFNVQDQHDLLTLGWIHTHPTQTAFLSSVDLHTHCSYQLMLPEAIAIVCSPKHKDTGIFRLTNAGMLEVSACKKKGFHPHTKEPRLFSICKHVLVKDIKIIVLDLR
Assay: pull-down; purified GFP-FLAG-STAMBPL1 applied to GST-Rab beads with 100 uM GppNHp or GDP, 4 C, 2 hr, high salt elution, Coomassie stained gel
Settings: both partners purified

- binding result: binds
B1: GST-Rab2A(Q65L) (natural protein, human, UniProt P61019 1-212, looked up)
chain: MAYAYLFKYIIIGDTGVGKSCLLLQFTDKRFQPVHDLTIGVEFGARMITIDGKQIKLQIWDTAGLESFRSITRSYYRGAAGALLVYDITRRDTFNHLTTWLEDARQHSNSNMVIMLIGNKSDLESRREVKKEEGEAFAREHGLIFMETSAKTASNVEEAFINTAKEIYEKIQEGVFDINNEANGIKIGPQHAATNATHAGNQGGQQAGGGCC
notes: with GppNHp; also called GST-Rab2A QL; recombinant Rab2A
